Measured values from the Human Domainome abundance scans (Beltran et al. 2025).
± gives the uncertainty stated by the source.

B1: CD2-associated protein, residues 109 to 169; numbered along this chain, Q9Y5K6 (parent)
chain: KKRQCKVLFEYIPQNEDELELKVGDIIDINEEVEEGWWSGTLNNKLGLFPSNFVKELEVTD

Variants of: B1
Test: abundance fitness (aPCA) (normalised: wild type 0, dead -1); higher = more abundant; growth selection in yeast, the domain comes from the species named
Conditions: Homo sapiens

Variant	abundance fitness
KKRQCKVLFEYIPQNEDELESKVGDIIDINEEVEEGWWSGTLNNKLGLFPSNFVKELEVTD [L21S]	-0.719 ± 0.21
KKRQCKVLFEYIPQNEDELELKVGDIIDINEEVEEGWWSGTLNNKLGLFNSNFVKELEVTD [P50N]	-0.045 ± 0.16
KKRQCKVLFEYIPQNEDELELKVGDIIDINEEVEEGWWSGTLNQKLGLFPSNFVKELEVTD [N44Q]	-0.183 ± 0.24
KKRQCKVLFEYIPQNEDELELKVGDIIDINEEVEEGWWSGTLNNKLGLFPSNNVKELEVTD [F53N]	-0.109 ± 0.12
KKRQCKVLSEYIPQNEDELELKVGDIIDINEEVEEGWWSGTLNNKLGLFPSNFVKELEVTD [F9S]	0.004 ± 0.087
KKRQCKVLFEYIPQNEDELELKVGDIICINEEVEEGWWSGTLNNKLGLFPSNFVKELEVTD [D28C]	-0.264 ± 0.25
KKRQCKVLFEYIPQNEDELELKVGDIIDINEEVEEGPWSGTLNNKLGLFPSNFVKELEVTD [W37P]	-0.541 ± 0.2
KKRQCKVLFEYIPQNEDELELKVGDIIDINEEVEEMWWSGTLNNKLGLFPSNFVKELEVTD [G36M]	-0.201 ± 0.12
KKRQCKVLFEYIPQNEDELELKQGDIIDINEEVEEGWWSGTLNNKLGLFPSNFVKELEVTD [V23Q]	-0.071 ± 0.17
KKRQCKVLFEYIPQNEDELELKVGDIIDINEEVEEGLWSGTLNNKLGLFPSNFVKELEVTD [W37L]	-0.344 ± 0.12
KKRQCKVLFEYIPQNEDELELKVGDIIDINEWVEEGWWSGTLNNKLGLFPSNFVKELEVTD [E32W]	-0.374 ± 0.31
KSRQCKVLFEYIPQNEDELELKVGDIIDINEEVEEGWWSGTLNNKLGLFPSNFVKELEVTD [K2S]	-0.754 ± 0.3
KKRQCKVLFEYIPQNEDELELKVGDIIDINEEVEEGWFSGTLNNKLGLFPSNFVKELEVTD [W38F]	-0.263 ± 0.12
KKRQCKVLFEYIPQNEDELELKVGDAIDINEEVEEGWWSGTLNNKLGLFPSNFVKELEVTD [I26A]	-0.912 ± 0.27
KKRQCKVLFEYIPQNEDELELKVGDWIDINEEVEEGWWSGTLNNKLGLFPSNFVKELEVTD [I26W]	-0.442 ± 0.28
KKRQCKVLFEYIPQNEDELELKVGDIIDINEEVEEGWWSGTLNNKLGLFPANFVKELEVTD [S51A]	0.09 ± 0.07
KKRQCKVLFEYIPSNEDELELKVGDIIDINEEVEEGWWSGTLNNKLGLFPSNFVKELEVTD [Q14S]	-0.325 ± 0.25
KKRQCKVLFEYIPQNEDELELKVGDIIDINEEVEEGIWSGTLNNKLGLFPSNFVKELEVTD [W37I]	-0.524 ± 0.24
KKRQCKVLFEYIPQNEDELELKVGDIIDINEEVEEGWWSGTLNNKLGLFPSNFVKVLEVTD [E56V]	-0.105 ± 0.08
KKRQCKVLFEYIPQNEDELELKVRDIIDINEEVEEGWWSGTLNNKLGLFPSNFVKELEVTD [G24R]	-0.735 ± 0.25
KKRQCKVLFEYIPQNEDELELKVGDIIDINEEVEEGWWSGTLNNKLGLFPSNFVKELMVTD [E58M]	0 ± 0.26
KKRQCKVLFEYIPQNEDELELKVGDIIDINEEVEEGWWSGTLNNKLGKFPSNFVKELEVTD [L48K]	0.197 ± 0.073

Variant	abundance fitness
KKRQCKVLFEYIPQNEDELELKVGDIIDINEEVEEGWWSGTGNNKLGLFPSNFVKELEVTD [L42G]	-0.451 ± 0.12
KKRQCKVLFEYIPQNEDELELKVGDIIDINEEVEEGWWSGTRNNKLGLFPSNFVKELEVTD [L42R]	-0.388 ± 0.084
KKRQCKVLFEYIPQNEDELELKVGDIIDINEEVEEGWWSGTLNKKLGLFPSNFVKELEVTD [N44K]	0.019 ± 0.24
KKRQCKVLFEYIPQYEDELELKVGDIIDINEEVEEGWWSGTLNNKLGLFPSNFVKELEVTD [N15Y]	-0.558 ± 0.27
KKRQCKVLFEYIPQNEDELELKVGDIIDINEEVEEGWWSGTLNNKLGLFPSNFVKELEVRD [T60R]	-0.366 ± 0.13
KKRQCKVLFEYIPQNEDELELKVGDIIDINEEVEEGWWSGTLNNKLGLFPSNFVKILEVTD [E56I]	-0.225 ± 0.11
KKRQCKVLFEYIPQNEDELELKVGDIIDINEEVEEGWWSGTLNNKLGLFPSNFVKELNVTD [E58N]	-0.057 ± 0.12
KKRQCKVLFEYIPQNEDELELKVGDIIDINEEVEEGWWSGTLNNKLGLFPSNFVKELEETD [V59E]	0.174 ± 0.14
KKRQCKVLFEYAPQNEDELELKVGDIIDINEEVEEGWWSGTLNNKLGLFPSNFVKELEVTD [I12A]	-0.03 ± 0.13
KKRQCKVLFEYIPQNEDELELKVGDIIDINEEVEEGWWSGTLNNKLGLFPSNFVKELETTD [V59T]	0.01 ± 0.1
KKRQCKVLFEYIPQNEDELELKVGDIIDINEEVEEGWWSGTLTNKLGLFPSNFVKELEVTD [N43T]	-0.835 ± 0.21
KKRQRKVLFEYIPQNEDELELKVGDIIDINEEVEEGWWSGTLNNKLGLFPSNFVKELEVTD [C5R]	-0.547 ± 0.11
KKRQCKVLFEYIPQNEDELELKVGDIIDINEEVEEGWWSGTLNNKLGLFPFNFVKELEVTD [S51F]	-0.431 ± 0.26
KKQQCKVLFEYIPQNEDELELKVGDIIDINEEVEEGWWSGTLNNKLGLFPSNFVKELEVTD [R3Q]	-0.963 ± 0.31
KKRQCKVWFEYIPQNEDELELKVGDIIDINEEVEEGWWSGTLNNKLGLFPSNFVKELEVTD [L8W]	-0.49 ± 0.24
KKRQCKVLFEYIPQNEDELELKVGDIIDIQEEVEEGWWSGTLNNKLGLFPSNFVKELEVTD [N30Q]	-0.043 ± 0.19
KKRQCKVLFEYIPQNEDELELKVGDIIFINEEVEEGWWSGTLNNKLGLFPSNFVKELEVTD [D28F]	-0.335 ± 0.19
KKRQCKVLFEYIPQNEDELELKVGDIIDINEEVEEGYWSGTLNNKLGLFPSNFVKELEVTD [W37Y]	-0.448 ± 0.48
KKRQCKVLFEYIPQNEDELELKVGDIIDNNEEVEEGWWSGTLNNKLGLFPSNFVKELEVTD [I29N]	-0.431 ± 0.21
KKRQCQVLFEYIPQNEDELELKVGDIIDINEEVEEGWWSGTLNNKLGLFPSNFVKELEVTD [K6Q]	0.191 ± 0.065
KKRQCKVLFEYIPQNEDELELKVGDIIDINEEVEEGWWSGTLNNKLGLFPSNFVKQLEVTD [E56Q]	-0.291 ± 0.18
KKRQCKVLFEYIPQNEDELELKVGDIIDINEEVEEGWWSGTLNNKLGLFPSNFVKELFVTD [E58F]	-0.207 ± 0.15
